Experimental data as given in PMC2632905.
Like-named read-outs stand apart in the source and are kept apart here.

Assays:
Cdc13(DBD) [1] = biological target: T1, Cdc13(DBD) (Saccharomyces cerevisiae, UniProt P32797 497-694); assay: filter binding
T1 sequence: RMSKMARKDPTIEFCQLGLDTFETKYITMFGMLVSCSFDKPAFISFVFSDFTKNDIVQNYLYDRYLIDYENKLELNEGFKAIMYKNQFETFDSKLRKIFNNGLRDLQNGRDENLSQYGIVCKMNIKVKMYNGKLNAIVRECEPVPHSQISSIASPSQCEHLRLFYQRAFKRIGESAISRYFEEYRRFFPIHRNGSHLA

Cdc13p full-length [2] = biological target: T2, Cdc13p full-length (Saccharomyces cerevisiae, UniProt P32797 1-924); assay: EMSA
T2 sequence: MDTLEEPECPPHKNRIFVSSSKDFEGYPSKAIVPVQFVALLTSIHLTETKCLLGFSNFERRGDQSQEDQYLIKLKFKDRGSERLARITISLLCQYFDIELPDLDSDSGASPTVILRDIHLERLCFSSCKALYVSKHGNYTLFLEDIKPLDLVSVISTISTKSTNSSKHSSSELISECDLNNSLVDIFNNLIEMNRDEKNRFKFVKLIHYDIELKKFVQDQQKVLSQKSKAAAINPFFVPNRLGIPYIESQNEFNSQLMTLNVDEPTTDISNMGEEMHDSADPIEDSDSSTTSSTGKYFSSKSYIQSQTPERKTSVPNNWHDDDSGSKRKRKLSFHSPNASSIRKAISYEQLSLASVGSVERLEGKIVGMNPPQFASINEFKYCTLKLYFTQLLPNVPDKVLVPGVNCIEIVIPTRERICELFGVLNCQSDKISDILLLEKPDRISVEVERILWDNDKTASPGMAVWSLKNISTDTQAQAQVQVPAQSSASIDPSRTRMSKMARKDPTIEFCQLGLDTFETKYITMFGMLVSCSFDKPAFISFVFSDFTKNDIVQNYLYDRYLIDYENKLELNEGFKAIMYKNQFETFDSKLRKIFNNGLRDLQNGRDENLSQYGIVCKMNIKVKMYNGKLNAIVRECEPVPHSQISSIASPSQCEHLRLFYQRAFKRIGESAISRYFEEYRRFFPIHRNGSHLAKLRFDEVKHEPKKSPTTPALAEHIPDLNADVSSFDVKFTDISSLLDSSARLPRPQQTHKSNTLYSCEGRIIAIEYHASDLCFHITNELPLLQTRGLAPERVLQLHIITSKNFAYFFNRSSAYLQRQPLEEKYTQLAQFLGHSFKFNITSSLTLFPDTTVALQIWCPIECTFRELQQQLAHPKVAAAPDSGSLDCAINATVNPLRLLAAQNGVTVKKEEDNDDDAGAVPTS

Cdc13p full-length [3] = biological target: T2, Cdc13p full-length; assay: footprinting
Cdc13(DBD) [4] = biological target: T1, Cdc13(DBD); assay: footprinting
Cdc13(DBD) [5] = biological target: T1, Cdc13(DBD); assay: footprinting; remark: listed apart in the source
Cdc13p full-length [6] = biological target: T2, Cdc13p full-length; assay: footprinting; remark: listed apart in the source

With GTGTCTGTCTGGGG (ssDNA) [TEL*-GGG] the Kd (Cdc13(DBD) [1]) was 33 ± 5.7 nM and the Kd (Cdc13p full-length [2]) was 2.2 ± 0.7 nM.

For GTGTCTGTCTGGTGTGGG (ssDNA) [TEL*-GTGTGGG], the Kd (Cdc13p full-length [2]) was 0.81 ± 0.15 nM.

For GTGTGGGTGTG (ssDNA) [TEL], the Kd (Cdc13(DBD) [1]) was 2.8 ± 0.6 nM and the Kd (Cdc13p full-length [2]) was 0.43 ± 0.17 nM.

Work on GTGTCTGTCTGGG (ssDNA) [TEL*-GG] yielded a Kd (Cdc13p full-length [2]) of 0.81 ± 0.03 nM.

GTGTCTGTCTGTGTGGG (ssDNA) [TEL*-TGTGGG]: binds (Cdc13p full-length [3]); binds (Cdc13(DBD) [4]).

Binder GTGTCTGTCTGAAAAAAAAAA (ssDNA) [TEL*-a10] has a Kd (Cdc13(DBD) [1]) of 380 ± 57 nM and a Kd (Cdc13p full-length [2]) of 7.4 ± 2.4 nM.

GTGTCTGTCTGGTGGG (ssDNA) [TEL*-GTGGG]: binds (Cdc13(DBD) [5]); binds (Cdc13p full-length [6]).

In the case of GTGTCTGTCTG (ssDNA) [TEL*], the Kd (Cdc13(DBD) [1]) is reported as 620 ± 120 nM and the Kd (Cdc13p full-length [2]) is reported as 11 ± 3.8 nM.
